Measured values: paper PMC9943647, “Structures of pMV158 replication initiator RepB with and without DNA reveal a flexible dual-function protein” (Nucleic Acids Research, 2023)

Tests used:
[1] = target: T1, RepB OBD (origin binding domain), wt (Streptococcus plasmid pMV158, UniProt P13921 1-131); experiment: EMSA; EMSA: 20 mM Tris-HCl pH 8.0, 5 mM DTT, 300 mM NaCl, 20 nM DNA, 20 min 25 C; footprinting same buffer; SPR: 10 mM HEPES pH 7.4, 150 mM NaCl, 3 mM EDTA, 0.005% P20; conditions: protein: recombinant; tags: none; label: 5'-Cy5 (top); blunt
T1 sequence: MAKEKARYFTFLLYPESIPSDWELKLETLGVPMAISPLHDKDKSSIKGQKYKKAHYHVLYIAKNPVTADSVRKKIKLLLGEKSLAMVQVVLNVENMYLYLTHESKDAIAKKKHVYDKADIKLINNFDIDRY

[2] = target: OBD triple mutant (Streptococcus plasmid pMV158, UniProt P13921 1-131, K3A;E4A;K5A); experiment: as above; conditions: protein: recombinant; label: 5'-Cy5 (top); blunt
[3] = target: OBD quadruple mutant (Streptococcus plasmid pMV158, UniProt P13921 1-131, R72A;K73A;K74A;K76A); experiment: as above; conditions: protein: recombinant; label: 5'-Cy5 (top); blunt
[4] = target: OBD E4A (Streptococcus plasmid pMV158, UniProt P13921 1-131, E4A); experiment: as above; conditions: protein: recombinant; label: 5'-Cy5 (top); blunt
[5] = target: OBD R72A (Streptococcus plasmid pMV158, UniProt P13921 1-131, R72A); experiment: as above; conditions: protein: recombinant; label: 5'-Cy5 (top); blunt
[6] = target: OBD K5A (Streptococcus plasmid pMV158, UniProt P13921 1-131, K5A); experiment: as above; conditions: protein: recombinant; label: 5'-Cy5 (top); blunt
[7] = target: OBD K76A (Streptococcus plasmid pMV158, UniProt P13921 1-131, K76A); experiment: as above; conditions: protein: recombinant; label: 5'-Cy5 (top); blunt
[8] = target: the molecule itself; experiment: crystal structure; full-length RepB without DNA; hanging drop, 100 mM Na/K phosphate pH 6.2, 200 mM NaCl, 10% PEG 8000; space group P21, 2.77 A
[9] = target: T1, RepB OBD (origin binding domain), wt; experiment: EMSA; per DDR site, independent binding, complexes C1-C3; Kd ~0.8 uM; EMSA: 20 mM Tris-HCl pH 8.0, 5 mM DTT, 300 mM NaCl, 20 nM DNA, 20 min 25 C; footprinting same buffer; SPR: 10 mM HEPES pH 7.4, 150 mM NaCl, 3 mM EDTA, 0.005% P20; conditions: protein: recombinant; tags: none; label: 5'-Cy5 (top) for EMSA; 32P at both 5' ends for footprinting; blunt
[10] = target: T1, RepB OBD (origin binding domain), wt; experiment: SPR; HBS-EP pH 7.4, 150 mM NaCl; specific DNA is 1DDR in text, DDRC in Fig 3; EMSA: 20 mM Tris-HCl pH 8.0, 5 mM DTT, 300 mM NaCl, 20 nM DNA, 20 min 25 C; footprinting same buffer; SPR: 10 mM HEPES pH 7.4, 150 mM NaCl, 3 mM EDTA, 0.005% P20; conditions: protein: recombinant; tags: none; label: 5'-Cy5 (top) for EMSA; 5'-biotin for SPR; blunt
[11] = target: T1, RepB OBD (origin binding domain), wt; experiment: EMSA; complex half-life <10 s; EMSA: 20 mM Tris-HCl pH 8.0, 5 mM DTT, 300 mM NaCl, 20 nM DNA, 20 min 25 C; footprinting same buffer; SPR: 10 mM HEPES pH 7.4, 150 mM NaCl, 3 mM EDTA, 0.005% P20; conditions: protein: recombinant; tags: none; label: 5'-Cy5 (top) for EMSA; 5'-biotin for SPR; blunt
[12] = target: T1, RepB OBD (origin binding domain), wt; experiment: SPR; HBS-EP pH 7.4, 150 mM NaCl; Results text names 1DDR, but Methods, Table S1 and Fig 3 legend name DDRC; EMSA: 20 mM Tris-HCl pH 8.0, 5 mM DTT, 300 mM NaCl, 20 nM DNA, 20 min 25 C; footprinting same buffer; SPR: 10 mM HEPES pH 7.4, 150 mM NaCl, 3 mM EDTA, 0.005% P20; conditions: protein: recombinant; tags: none; label: 5'-Cy5 (top) for EMSA; 5'-biotin for SPR; blunt

B1: DDRR (dsDNA)
DNA 1: CTTTTCGGCGACTTTTTAG
DNA 2: CTAAAAAGTCGCCGAAAAG
- Kd [1]: ~1 µM

B2: 1DDR (dsDNA)
DNA 1: AATCTCGGCGACTTTTTAGA
DNA 2: TCTAAAAAGTCGCCGAGATT
- Kd [2]: 1.1 ± 0.1 µM
- binding result [3]: no binding
- Kd [4]: 0.6 ± 0.1 µM
- Kd [1]: 1.1 ± 0.1 µM
- Kd [5]: 1.7 ± 0.2 µM
- Kd [6]: 1.8 ± 0.2 µM
- Kd [7]: 5.5 ± 0.7 µM

B3: DDRL (dsDNA)
DNA 1: AATCTCGGCGACTTTTCGG
DNA 2: CCGAAAAGTCGCCGAGATT
- Kd [1]: ~1 µM

B4: RepB, replication initiation protein of plasmid pMV158 (full-length hexamer) (natural protein, streptococcal plasmid pMV158, UniProt P13921 1-210, looked up)
chain: MAKEKARYFTFLLYPESIPSDWELKLETLGVPMAISPLHDKDKSSIKGQKYKKAHYHVLYIAKNPVTADSVRKKIKLLLGEKSLAMVQVVLNVENMYLYLTHESKDAIAKKKHVYDKADIKLINNFDIDRYVTLDVEEKTELFNVVVSLIRAYTLQNIFDLYDFIDENGETYGLTINLVNEVIAGKTGFMKLLFDGAYQRSKRGTKNEER
notes: RepB, replication initiator (HUH endonuclease) of the streptococcal plasmid pMV158; Crystallised without DNA; a phosphate sits in each active site instead of Mn2+; also called RepB6; full-length RepB
- stoichiometry N [8]: 6

B5: 3DDR (dsDNA)
DNA 1: AATCTCGGCGACTTTTCGGCGACTTTTCGGCGACTTTTTAGA
DNA 2: TCTAAAAAGTCGCCGAAAAGTCGCCGAAAAGTCGCCGAGATT
- Ka [9]: 1.2 ± 0.4 µM⁻¹

B6: NS (dsDNA)
DNA 1: CGGGTCGGTAATTGGGTTT
DNA 2: AAACCCAATTACCGACCCG
- binding signal [10]: ~15 fold lower affinity than specific DNA

B7: DDRC (dsDNA)
DNA 1: CTTTTCGGCGACTTTTCGG
DNA 2: CCGAAAAGTCGCCGAAAAG
- Kd [11]: ~1 µM
- Kd [12]: 0.22 ± 0.01 µM
